This note sets out measurements from publication PMC6791878 (2019).

The chains are these.
B1: Recombinant human integrin αvβ6 (complex)
chain 1: FNLDVDSPAEYSGPEGSYFGFAVDFFVPSASSRMFLLVGAPKANTTQPGIVEGGQVLKCDWSSTRRCQPIEFDATGNRDYAKDDPLEFKSHQWFGASVRSKQDKILACAPLYHWRTEMKQEREPVGTCFLQDGTKTVEYAPCRSQDIDADGQGFCQGGFSIDFTKADRVLLGGPGSFYWQGQLISDQVAEIVSKYDPNVYSIKYNNQLATRTAQAIFDDSYLGYSVAVGDFNGDGIDDFVSGVPRAARTLGMVYIYDGKNMSSLYNFTGEQMAAYFGFSVAATDINGDDYADVFIGAPLFMDRGSDGKLQEVGQVSVSLQRASGDFQTTKLNGFEVFARFGSAIAPLGDLDQDGFNDIAIAAPYGGEDKKGIVYIFNGRSTGLNAVPSQILEGQWAARSMPPSFGYSMKGATDIDKNGYPDLIVGAFGVDRAILYRARPVITVNAGLEVYPSILNQDNKTCSLPGTALKVSCFNVRFCLKADGKGVLPRKLNFQVELLLDKLKQKGAIRRALFLYSRSPSHSKNMTISRGGLMQCEELIAYLRDESEFRDKLTPITIFMEYRLDYRTAADTTGLQPILNQFTPANISRQAHILLDCGEDNVCKPKLEVSVDSDQKKIYIGDDNPLTLIVKAQNQGEGAYEAELIVSIPLQADFIGVVRNNEALARLSCAFKTENQTRQVVCDLGNPMKAGTQLLAGLRFSVHQQSEMDTSVKFDLQIQSSNLFDKVSPVVSHKVDLAVLAAVEIRGVSSPDHVFLPIPNWEHKENPETEEDVGPVVQHIYELRNNGPSSFSKAMLHLQWPYKYNNNTLLYILHYDIDGPMNCTSDMEINPLRIKISSLQTTEKNDTVAGQGERDHLITKRDLALSEGDIHTLGCGVAQCLKIVCQVGRLDRGKSAILYVKSLLWTETFMNKENQNHSYSLKSSASFNVIEFPYKNLPIEDITNSTLVTTNVTWGIQPAPMPV
chain 2: GCALGGAETCEDCLLIGPQCAWCAQENFTHPSGVGERCDTPANLLAKGCQLNFIENPVSQVEILKNKPLSVGRQKNSSDIVQIAPQSLILKLRPGGAQTLQVHVRQTEDYPVDLYYLMDLSASMDDDLNTIKELGSRLSKEMSKLTSNFRLGFGSFVEKPVSPFVKTTPEEIANPCSSIPYFCLPTFGFKHILPLTNDAERFNEIVKNQKISANIDTPEGGFDAIMQAAVCKEKIGWRNDSLHLLVFVSDADSHFGMDSKLAGIVIPNDGLCHLDSKNEYSMSTVLEYPTIGQLIDKLVQNNVLLIFAVTQEQVHLYENYAKLIPGATVGLLQKDSGNILQLIISAYEELRSEVELEVLGDTEGLNLSFTAICNNGTLFQHQKKCSHMKVGDTASFSVTVNIPHCERRSRHIIIKPVGLGDALELLVSPECNCDCQKEVEVNSSKCHHGNGSFQCGVCACHPGHMGPRCECGEDMLSTDSCKEAPDHPSCSGRGDCYCGQCICHLSPYGNIYGPYCQCDNFSCVRHKGLLCGGNGDCDCGECVCRSGWTGEYCNCTTSTDSCVSEDGVLCSGRGDCVCGKCVCTNPGASGPTCERCPTCGDPCNSKRSCIECHLSAAGQAREECVDKCKLAGATISEEEDFSKDGSVSCSLQGENECLITFLITTDNEGKTIIHSINEKDCPKPPNIP

Test [1] has as its target B1. In words: FACS; competition with yeast-displayed R01-MG.
Test [2] deals with B1. In words: FACS; competition with yeast-displayed R01-MG. A general note: In flow cytometry, cells or beads pass a laser one at a time.
The target in the next test is R01-MW. In words: FACS.

Like-named read-outs stand apart in the source and are kept apart here. Where no end group is shown, it is not given here.

The IC50 is the concentration that gives 50% inhibition. Take GCILNGRTDLGTLLFRCRRDSDCPGACICRGNGYCG-NH2 (designed binder, disulfide (positions not given here)) [R01-MG synthetic cystine knot peptide (unlabeled precursor)]: the IC50 in test [1] was 0.383 nM. For {2‑(19F)fluoropropionyl}-GCILNGRTDLGTLLFRCRRDSDCPGACICRGNGYCG-NH2 (disulfide (positions not given here); not fully specified (bridges)) [[19F]FP-R01-MG-F1], the IC50 in test [2] turned out to be 0.541 nM. By Kd is commonly meant the free concentration of one partner at which half of the binding sites on the other are occupied at equilibrium, for simple one-to-one binding. High values mean weaker binding, low ones tighter binding. Molecule B1 showed a Kd with R01-MW of 1.69 nM. In other words, the single-digit nanomolar range. Regarding {(19F)fluoropropyl}-GCILNGRTDLGTLLFRCRRDSDCPGACICRGNGYCG (designed binder, disulfide (positions not given here); not fully specified (C-terminus)) [[^19F]FP-R01-MG-F2], the IC50 in test [1] is 0.469 nM.
